Assay results reported in patent US20210388053A1.
Values joined by “and” are separate entries in the source; they are usually repeats but may differ in a detail not shown here. Equal values may be shown once.

Experiments:
[1] = biological target: canine FcRn/B2M protein complex (canine FcRn ECD with C-terminal poly-His tag and canine Beta-2-Microglobulin) (canine); assay: SPR Biacore T200, pH 6.0; biotinylated FcRn/B2M immobilized, Fc as analyte
[2] = biological target: canine FcRn/B2M protein complex (canine FcRn ECD with C-terminal poly-His tag and canine Beta-2-Microglobulin) (canine); assay: SPR Biacore T200 steady state, pH 6.0, 25 C; Fc on CM5 chip, FcRn/B2M 12.5-200 nM
[3] = biological target: canine FcRn/B2M protein complex (canine FcRn ECD with C-terminal poly-His tag and canine Beta-2-Microglobulin) (canine); assay: SPR Biacore 8K, pH 6.0, 25 C; Fc captured by SASA tag on BSA chip, FcRn/B2M 400 nM as analyte

Sequence of canine FcRn/B2M protein complex (canine FcRn ECD with C-terminal poly-His tag and canine Beta-2-Microglobulin) (canine) (chain, as listed by the source limits assumed, form in doubt, chain 1 of 2): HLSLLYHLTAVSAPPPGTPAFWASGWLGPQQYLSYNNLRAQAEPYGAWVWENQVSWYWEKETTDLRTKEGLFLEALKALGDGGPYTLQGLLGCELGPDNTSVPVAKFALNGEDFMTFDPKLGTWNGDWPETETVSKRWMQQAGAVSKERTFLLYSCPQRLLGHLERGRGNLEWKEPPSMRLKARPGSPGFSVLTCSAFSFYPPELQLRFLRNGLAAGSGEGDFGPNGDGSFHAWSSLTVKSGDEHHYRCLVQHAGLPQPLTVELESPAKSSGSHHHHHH
Sequence of canine FcRn/B2M protein complex (canine FcRn ECD with C-terminal poly-His tag and canine Beta-2-Microglobulin) (canine) (b2m, as listed by the source limits assumed, form in doubt, chain 2 of 2): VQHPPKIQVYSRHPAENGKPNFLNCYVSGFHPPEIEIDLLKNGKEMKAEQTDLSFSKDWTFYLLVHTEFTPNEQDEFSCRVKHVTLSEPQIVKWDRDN

Binder | koff [1] | Kd [2] [nM] | Kd [3] [nM] | koff [3] [s⁻¹] | kon [3] [M⁻¹ s⁻¹]
variant canine IgG-B Fc polypeptide Y0Y (Leu24Tyr, Asn208Tyr) (protein, not shown: small tags and cut ends) CPAPEMLGGPSVFIFPPKPKDTLYIARTPEVTCVVVDLDPEDPEVQISWFVDGKQMQTAKTQPREEQFNGTYRVVSVLPIGHQDWLKGKQFTCKVNNKALPSPIERTISKARGQAHQPSVYVLPPSREELSKNTVSLTCLIKDFFPPDIDVEWQSNGQQEPESKYRTTPPQLDEDGSYFLYSKLSVDKSRWQRGDTFICAVMHEALHYHYTQESLSHSPGK |  |  | 0.49 | 0.00014 | 286000
variant canine IgG-B Fc polypeptide 0YW (Gln83Tyr, Asn208Trp) (protein, not shown: small tags and cut ends) CPAPEMLGGPSVFIFPPKPKDTLLIARTPEVTCVVVDLDPEDPEVQISWFVDGKQMQTAKTQPREEQFNGTYRVVSVLPIGHYDWLKGKQFTCKVNNKALPSPIERTISKARGQAHQPSVYVLPPSREELSKNTVSLTCLIKDFFPPDIDVEWQSNGQQEPESKYRTTPPQLDEDGSYFLYSKLSVDKSRWQRGDTFICAVMHEALHWHYTQESLSHSPGK |  |  | 6.1 | 0.00213 | 348000
variant canine IgG-B Fc polypeptide 0YF (Gln83Tyr, Asn208Phe) (protein, not shown: small tags and cut ends) CPAPEMLGGPSVFIFPPKPKDTLLIARTPEVTCVVVDLDPEDPEVQISWFVDGKQMQTAKTQPREEQFNGTYRVVSVLPIGHYDWLKGKQFTCKVNNKALPSPIERTISKARGQAHQPSVYVLPPSREELSKNTVSLTCLIKDFFPPDIDVEWQSNGQQEPESKYRTTPPQLDEDGSYFLYSKLSVDKSRWQRGDTFICAVMHEALHFHYTQESLSHSPGK |  |  | 3.1 | 0.00118 | 380000
variant canine IgG-B Fc polypeptide Y0W (Leu24Tyr, Asn208Trp) (protein, not shown: small tags and cut ends) CPAPEMLGGPSVFIFPPKPKDTLYIARTPEVTCVVVDLDPEDPEVQISWFVDGKQMQTAKTQPREEQFNGTYRVVSVLPIGHQDWLKGKQFTCKVNNKALPSPIERTISKARGQAHQPSVYVLPPSREELSKNTVSLTCLIKDFFPPDIDVEWQSNGQQEPESKYRTTPPQLDEDGSYFLYSKLSVDKSRWQRGDTFICAVMHEALHWHYTQESLSHSPGK |  |  | 3.72 | 0.000929 | 250000
variant canine IgG-B Fc polypeptide 0YH (Gln83Tyr, Asn208His) (protein, not shown: small tags and cut ends) CPAPEMLGGPSVFIFPPKPKDTLLIARTPEVTCVVVDLDPEDPEVQISWFVDGKQMQTAKTQPREEQFNGTYRVVSVLPIGHYDWLKGKQFTCKVNNKALPSPIERTISKARGQAHQPSVYVLPPSREELSKNTVSLTCLIKDFFPPDIDVEWQSNGQQEPESKYRTTPPQLDEDGSYFLYSKLSVDKSRWQRGDTFICAVMHEALHHHYTQESLSHSPGK |  |  | 11.8 | 0.00791 | 673000
variant canine IgG-B Fc polypeptide YYR (Leu24Tyr, Gln83Tyr, Asn208Arg) (protein, not shown: small tags and cut ends) CPAPEMLGGPSVFIFPPKPKDTLYIARTPEVTCVVVDLDPEDPEVQISWFVDGKQMQTAKTQPREEQFNGTYRVVSVLPIGHYDWLKGKQFTCKVNNKALPSPIERTISKARGQAHQPSVYVLPPSREELSKNTVSLTCLIKDFFPPDIDVEWQSNGQQEPESKYRTTPPQLDEDGSYFLYSKLSVDKSRWQRGDTFICAVMHEALHRHYTQESLSHSPGK |  |  | 1.84 | 0.000638 | 347000
variant canine IgG-B Fc polypeptide Y0R (Leu24Tyr, Asn208Arg) (protein, not shown: small tags and cut ends) CPAPEMLGGPSVFIFPPKPKDTLYIARTPEVTCVVVDLDPEDPEVQISWFVDGKQMQTAKTQPREEQFNGTYRVVSVLPIGHQDWLKGKQFTCKVNNKALPSPIERTISKARGQAHQPSVYVLPPSREELSKNTVSLTCLIKDFFPPDIDVEWQSNGQQEPESKYRTTPPQLDEDGSYFLYSKLSVDKSRWQRGDTFICAVMHEALHRHYTQESLSHSPGK |  |  | 8.64 | 0.00295 | 341000
variant canine IgG-B Fc polypeptide L(24)F (protein, not shown: small tags and cut ends) CPAPEMLGGPSVFIFPPKPKDTLFIARTPEVTCVVVDLDPEDPEVQISWFVDGKQMQTAKTQPREEQFNGTYRVVSVLPIGHQDWLKGKQFTCKVNNKALPSPIERTISKARGQAHQPSVYVLPPSREELSKNTVSLTCLIKDFFPPDIDVEWQSNGQQEPESKYRTTPPQLDEDGSYFLYSKLSVDKSRWQRGDTFICAVMHEALHNHYTQESLSHSPGK | 0.0631 s⁻¹ and 0.0847 s⁻¹ | 367 |  |  | 
variant canine IgG-B Fc polypeptide 0YR (Gln83Tyr, Asn208Arg) (protein, not shown: small tags and cut ends) CPAPEMLGGPSVFIFPPKPKDTLLIARTPEVTCVVVDLDPEDPEVQISWFVDGKQMQTAKTQPREEQFNGTYRVVSVLPIGHYDWLKGKQFTCKVNNKALPSPIERTISKARGQAHQPSVYVLPPSREELSKNTVSLTCLIKDFFPPDIDVEWQSNGQQEPESKYRTTPPQLDEDGSYFLYSKLSVDKSRWQRGDTFICAVMHEALHRHYTQESLSHSPGK |  |  | 9.45 | 0.00655 | 693000

Second part, the binder after the results:

koff [1] | Kd [2] [nM] | Kd [3] [nM] | koff [3] [s⁻¹] | kon [3] [M⁻¹ s⁻¹] | Binder
0.126 s⁻¹ | 406 |  |  |  | variant canine IgG-B Fc polypeptide L(24)M (protein, not shown: small tags and cut ends) CPAPEMLGGPSVFIFPPKPKDTLMIARTPEVTCVVVDLDPEDPEVQISWFVDGKQMQTAKTQPREEQFNGTYRVVSVLPIGHQDWLKGKQFTCKVNNKALPSPIERTISKARGQAHQPSVYVLPPSREELSKNTVSLTCLIKDFFPPDIDVEWQSNGQQEPESKYRTTPPQLDEDGSYFLYSKLSVDKSRWQRGDTFICAVMHEALHNHYTQESLSHSPGK
 |  | 1.7 | 0.000612 | 360000 | variant canine IgG-B Fc polypeptide YYH (Leu24Tyr, Gln83Tyr, Asn208His) (protein, not shown: small tags and cut ends) CPAPEMLGGPSVFIFPPKPKDTLYIARTPEVTCVVVDLDPEDPEVQISWFVDGKQMQTAKTQPREEQFNGTYRVVSVLPIGHYDWLKGKQFTCKVNNKALPSPIERTISKARGQAHQPSVYVLPPSREELSKNTVSLTCLIKDFFPPDIDVEWQSNGQQEPESKYRTTPPQLDEDGSYFLYSKLSVDKSRWQRGDTFICAVMHEALHHHYTQESLSHSPGK
0.0138 s⁻¹ | 113 |  |  |  | variant canine IgG-B Fc polypeptide L(24)Y (protein, not shown: small tags and cut ends) CPAPEMLGGPSVFIFPPKPKDTLYIARTPEVTCVVVDLDPEDPEVQISWFVDGKQMQTAKTQPREEQFNGTYRVVSVLPIGHQDWLKGKQFTCKVNNKALPSPIERTISKARGQAHQPSVYVLPPSREELSKNTVSLTCLIKDFFPPDIDVEWQSNGQQEPESKYRTTPPQLDEDGSYFLYSKLSVDKSRWQRGDTFICAVMHEALHNHYTQESLSHSPGK
 |  | 2.03 | 0.00086 | 425000 | variant canine IgG-B Fc polypeptide 0YY (Gln83Tyr, Asn208Tyr) (protein, not shown: small tags and cut ends) CPAPEMLGGPSVFIFPPKPKDTLLIARTPEVTCVVVDLDPEDPEVQISWFVDGKQMQTAKTQPREEQFNGTYRVVSVLPIGHYDWLKGKQFTCKVNNKALPSPIERTISKARGQAHQPSVYVLPPSREELSKNTVSLTCLIKDFFPPDIDVEWQSNGQQEPESKYRTTPPQLDEDGSYFLYSKLSVDKSRWQRGDTFICAVMHEALHYHYTQESLSHSPGK
 |  | 0.787 | 0.000221 | 281000 | variant canine IgG-B Fc polypeptide Y0F (Leu24Tyr, Asn208Phe) (protein, not shown: small tags and cut ends) CPAPEMLGGPSVFIFPPKPKDTLYIARTPEVTCVVVDLDPEDPEVQISWFVDGKQMQTAKTQPREEQFNGTYRVVSVLPIGHQDWLKGKQFTCKVNNKALPSPIERTISKARGQAHQPSVYVLPPSREELSKNTVSLTCLIKDFFPPDIDVEWQSNGQQEPESKYRTTPPQLDEDGSYFLYSKLSVDKSRWQRGDTFICAVMHEALHFHYTQESLSHSPGK
0.122 s⁻¹ | 1250 | 102 | 0.0856 | 838000 | wild-type canine IgG-B Fc polypeptide (protein, not shown: small tags and cut ends) CPAPEMLGGPSVFIFPPKPKDTLLIARTPEVTCVVVDLDPEDPEVQISWFVDGKQMQTAKTQPREEQFNGTYRVVSVLPIGHQDWLKGKQFTCKVNNKALPSPIERTISKARGQAHQPSVYVLPPSREELSKNTVSLTCLIKDFFPPDIDVEWQSNGQQEPESKYRTTPPQLDEDGSYFLYSKLSVDKSRWQRGDTFICAVMHEALHNHYTQESLSHSPGK
 |  | 8.11 | 0.00271 | 334000 | variant canine IgG-B Fc polypeptide Y0H (Leu24Tyr, Asn208His) (protein, not shown: small tags and cut ends) CPAPEMLGGPSVFIFPPKPKDTLYIARTPEVTCVVVDLDPEDPEVQISWFVDGKQMQTAKTQPREEQFNGTYRVVSVLPIGHQDWLKGKQFTCKVNNKALPSPIERTISKARGQAHQPSVYVLPPSREELSKNTVSLTCLIKDFFPPDIDVEWQSNGQQEPESKYRTTPPQLDEDGSYFLYSKLSVDKSRWQRGDTFICAVMHEALHHHYTQESLSHSPGK
 |  | 1.93 | 0.000496 | 256000 | variant canine IgG-B Fc polypeptide YYW (Leu24Tyr, Gln83Tyr, Asn208Trp) (protein, not shown: small tags and cut ends) CPAPEMLGGPSVFIFPPKPKDTLYIARTPEVTCVVVDLDPEDPEVQISWFVDGKQMQTAKTQPREEQFNGTYRVVSVLPIGHYDWLKGKQFTCKVNNKALPSPIERTISKARGQAHQPSVYVLPPSREELSKNTVSLTCLIKDFFPPDIDVEWQSNGQQEPESKYRTTPPQLDEDGSYFLYSKLSVDKSRWQRGDTFICAVMHEALHWHYTQESLSHSPGK
 | 86.2 | 31 | 0.0205 | 662000 | YTE variant canine IgG-B Fc polypeptide (Leu24Tyr, Ala26Thr, Thr28Glu) (protein, not shown: small tags and cut ends) CPAPEMLGGPSVFIFPPKPKDTLYITREPEVTCVVVDLDPEDPEVQISWFVDGKQMQTAKTQPREEQFNGTYRVVSVLPIGHQDWLKGKQFTCKVNNKALPSPIERTISKARGQAHQPSVYVLPPSREELSKNTVSLTCLIKDFFPPDIDVEWQSNGQQEPESKYRTTPPQLDEDGSYFLYSKLSVDKSRWQRGDTFICAVMHEALHNHYTQESLSHSPGK
0.241 s⁻¹ |  |  |  |  | variant canine IgG-B Fc polypeptide L(24)S (protein, not shown: small tags and cut ends) CPAPEMLGGPSVFIFPPKPKDTLSIARTPEVTCVVVDLDPEDPEVQISWFVDGKQMQTAKTQPREEQFNGTYRVVSVLPIGHQDWLKGKQFTCKVNNKALPSPIERTISKARGQAHQPSVYVLPPSREELSKNTVSLTCLIKDFFPPDIDVEWQSNGQQEPESKYRTTPPQLDEDGSYFLYSKLSVDKSRWQRGDTFICAVMHEALHNHYTQESLSHSPGK
